Source: the supplement of paper PMC7125110
± gives the standard error. For some assays here: Variants at the floor of the assay were thinned out.

B1: glmS ribozyme (parent)
chain: AUAAAAGCGCCAGAACUACAGAAAUGUAGUUGACGAGGAGGAGGUUUAUCGAAUUUUCGGCGGAUGCCUCCAAA

Legend:
Settings in all cases: with glucosamine-6-phosphate
[1] = variants of: B1; assay: kcat; higher = faster cleavage; RNA array
Procedure, shortened: (§1)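 Glucosamine-6-phosphate in HEPES/KCl/Mg(OAc)2 buffer, at 40 μM to 10 mM, was flowed over barcoded ribozyme variants transcribed in situ by E. coli RNA polymerase on sequenced MiSeq chips. Tracking was through a hybridised Cy3 probe at 37 °C. kobs, kcat and KM came from exponential decay fits and weighted Michaelis–Menten fits of normalised per-tile medians.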

[2] = variants of: B1; assay: KM; higher = weaker cofactor use; RNA array
Procedure, shortened: as §1

[3] = variants of: B1; assay: self-cleavage kobs at 640 uM GlcN6P; higher = faster cleavage; RNA array
Procedure, shortened: as §1

[4] = variants of: B1; assay: self-cleavage kobs at 2500 uM GlcN6P; higher = faster cleavage; RNA array
Procedure, shortened: as §1

[5] = variants of: B1; assay: self-cleavage kobs at 10000 uM GlcN6P; higher = faster cleavage; RNA array
Procedure, shortened: as §1

[6] = variants of: B1; assay: self-cleavage kobs at 40 uM GlcN6P; higher = faster cleavage; RNA array
Procedure, shortened: as §1

[7] = variants of: B1; assay: self-cleavage kobs at 160 uM GlcN6P; higher = faster cleavage; RNA array
Procedure, shortened: as §1

Row | Variant | kcat [1] [s⁻¹] | KM [2] [µM] | self-cleavage kobs at 640 uM GlcN6P [3] [s⁻¹] | self-cleavage kobs at 2500 uM GlcN6P [4] [s⁻¹] | self-cleavage kobs at 10000 uM GlcN6P [5] [s⁻¹] | self-cleavage kobs at 40 uM GlcN6P [6] [s⁻¹] | self-cleavage kobs at 160 uM GlcN6P [7] [s⁻¹]
1 | G40A G41U | 7.26e-05 ± 2.3e-06 | 1160 ± 110 | 2.54e-05 ± 8.5e-06 | 5.29e-05 ± 1.9e-05 | 6.43e-05 ± 1.3e-05 |  | 
2 | G37C A53U U69G | 3.72e-05 ± 1.7e-05 |  | 3.81e-05 ± 1.9e-05 | 6.4e-05 ± 2.4e-05 |  |  | 
3 | G37U C50U C70U | 3.99e-05 ± 1.4e-05 |  |  |  |  |  | 
4 | G37C A52G | < 1e-05 |  |  |  |  | < 1e-05 | 
5 | U31C U49G | 7.25e-05 ± 2.8e-06 | 1610 ± 200 | 2.25e-05 ± 9.3e-06 | 4.27e-05 ± 7.7e-06 | 6.33e-05 ± 9.1e-06 |  | 
6 | A39C A52U | 8.87e-05 ± 2.8e-06 | 2380 ± 210 | 1.71e-05 ± 7.8e-06 | 4.62e-05 ± 6.1e-06 | 7.13e-05 ± 7.2e-06 | < 1e-05 | 
7 | G40A U46A | 0.00064 ± 0.00019 |  | 0.000254 ± 5.4e-05 | 0.000422 ± 9.6e-05 | 0.000495 ± 9.6e-05 |  | 
8 | G32A A64C | 1.13e-05 ± 9e-07 | 1760 ± 490 |  |  |  |  | 
9 | G32U U65G | 0.00128 ± 0.00061 |  |  | 2.49e-05 ± 1.1e-05 | 9.34e-05 ± 1.3e-05 | < 1e-05 | 
10 | G40A U47A | 0.00464 ± 0.00058 | 1440 ± 270 | 0.00126 ± 0.00024 | 0.0033 ± 0.00065 | 0.00398 ± 0.00077 | 0.000132 ± 2.1e-05 | 
11 | C34G G38U | < 1e-05 |  |  |  |  |  | < 1e-05
12 | G32U U56A | 0.00196 ± 0.00014 | 7730 ± 900 | 0.000156 ± 2.9e-05 | 0.000494 ± 7.9e-05 | 0.0011 ± 9.2e-05 |  | 3.3e-05 ± 1.3e-05
13 | A39U U57C | 0.00022 ± 2.2e-05 | 9720 ± 1500 |  | 4.56e-05 ± 8.7e-06 | 0.000111 ± 2.2e-05 |  | 
14 | G32A C70A | 7.22e-05 ± 1.4e-05 |  | 8.06e-05 ± 1.2e-05 | 8.73e-05 ± 8.9e-06 | 5.13e-05 ± 8.6e-06 |  | 
15 | A33C C58U | < 1e-05 |  |  |  | < 1e-05 |  | < 1e-05
16 | G32C | 0.000139 ± 1.7e-06 | 3460 ± 110 | 2.26e-05 ± 1.4e-06 | 5.77e-05 ± 1.3e-06 | 0.000103 ± 1.4e-06 |  | 
17 | G32U | 0.00158 ± 5.1e-05 | 5150 ± 240 | 0.000173 ± 2.7e-06 | 0.000508 ± 1e-05 | 0.00104 ± 1.4e-05 | 1.52e-05 ± 1.4e-06 | 4.88e-05 ± 1.7e-06
18 | G32A | 0.00528 ± 0.00074 | 4250 ± 750 | 0.00064 ± 1.1e-05 | 0.00219 ± 7.7e-05 | 0.00372 ± 7.6e-05 | 5.63e-05 ± 1.2e-06 | 0.000185 ± 5.1e-06

Row | Variant | kcat [1] [s⁻¹] | KM [2] [µM] | self-cleavage kobs at 640 uM GlcN6P [3] [s⁻¹] | self-cleavage kobs at 2500 uM GlcN6P [4] [s⁻¹] | self-cleavage kobs at 10000 uM GlcN6P [5] [s⁻¹] | self-cleavage kobs at 40 uM GlcN6P [6] [s⁻¹] | self-cleavage kobs at 160 uM GlcN6P [7] [s⁻¹]
19 | G37A U65G | 0.000263 ± 1.3e-05 | 3870 ± 390 | 4.13e-05 ± 1.5e-05 | 0.000102 ± 1.2e-05 | 0.000191 ± 2.3e-05 |  | 
20 | U31G G37C | 2.89e-05 ± 1.4e-06 | 1380 ± 340 |  |  |  | < 1e-05 | 
21 | G38A C71A | < 1e-05 |  |  |  | < 1e-05 |  | 
22 | G35C C68U | < 1e-05 |  |  |  |  | < 1e-05 | < 1e-05
23 | A39U A42U | 0.00653 ± 0.0017 | 1400 ± 530 | 0.00223 ± 0.00042 | 0.00602 ± 0.0014 | 0.00529 ± 0.00096 | 0.000312 ± 7.2e-05 | 0.000582 ± 8.8e-05
24 | A39U U56C | 0.00176 ± 0.00058 | 2130 ± 950 | 0.000351 ± 5.4e-05 | 0.000804 ± 0.00019 | 0.00192 ± 0.0004 | 3.9e-05 ± 8.2e-06 | 0.000149 ± 2.8e-05
25 | A39U U56G | 0.0257 ± 0.011 |  | 0.0021 ± 0.00031 | 0.00893 ± 0.0013 | 0.0139 ± 0.0021 | 0.000177 ± 2.7e-05 | 0.000402 ± 8.7e-05
26 | G37U C70G | 2.07e-05 ± 8.5e-06 |  |  |  |  |  | 
27 | G38U C58U U69G | 0.000168 ± 1.3e-05 |  | 0.000157 ± 2.8e-05 | 0.000189 ± 6.3e-05 | 0.000156 ± 4.9e-05 | 0.000148 ± 4.2e-05 | 0.000207 ± 5.2e-05
28 | A33C U54G | 0.00057 ± 0.00014 |  | 8.56e-05 ± 1.7e-05 | 0.000325 ± 3.8e-05 | 0.00043 ± 4.3e-05 |  | 8.91e-05 ± 2.6e-05
29 | A33C G66U | 2.18e-05 ± 4.2e-07 | 2420 ± 190 |  |  |  | < 1e-05 | 
30 | G37C U47G U69G | 7.04e-05 ± 2.8e-05 |  | 5.97e-05 ± 2e-05 | 0.000138 ± 4.1e-05 |  |  | 7.9e-05 ± 2.3e-05
31 | G32U A64U | < 1e-05 |  | < 1e-05 |  |  |  | < 1e-05
32 | U31G U45G | 0.00239 ± 0.00077 |  | 0.000405 ± 0.0001 | 0.00155 ± 0.00034 | 0.00164 ± 0.00042 |  | 
33 | U31G A48C | 0.000112 ± 1.1e-05 | 2550 ± 670 |  | 5.79e-05 ± 1.5e-05 | 8.83e-05 ± 1.7e-05 |  | 
34 | G38A C70G | 1.82e-05 ± 1.9e-06 |  |  |  |  |  | 
35 | G32A G37A | 0.00051 ± 0.00011 |  |  | 4.62e-05 ± 1e-05 | 0.000143 ± 1.8e-05 |  | 
36 | A36U U69A | 4.58e-05 ± 1.6e-05 |  |  | 7.35e-05 ± 2.7e-05 |  | 5.11e-05 ± 1.6e-05 | 
